Measured values: paper PMC7615342

Experiments:
[1] = Flow cytometry, surface versus total PD-1 staining; conditions: glycan changed form; control: sgNT Tregs
[2] = Flow cytometry, PD-1+ frequency and MFI, ex vivo Tregs; conditions: glycan changed form; control: DMSO-treated Tregs

B1: PD-1: sgSlc35c1 (protein)
parent chain: MWVRQVPWSFTWAVLQLSWQSGWLLEVPNGPWRSLTFYPAWLTVSEGANATFTCSLSNWSEDLMLNWNRLSPSNQTEKQAAFCNGLSQPVQDARFQIIQLPNRHDFHMNILDTRRNDSGIYLCGAISLHPKAKIEESPGAELVVTERILETSTRYPSPSPKPEGRFQGMVIGIMSALVGIPVLLLLAWALAVFCSTSMSEARGAGSKDDTLKEEPSAAPVPSVAYEELDFQGREKTPELPTACVHTEYATIVFTEGLGASAMGRRGSADGLQGPRPPRHEDGHCSWPL
- localisation_or_trafficking [1]: decreases

B2: PD-1: 2FF 100 μM, 6 days (protein)
parent chain: MWVRQVPWSFTWAVLQLSWQSGWLLEVPNGPWRSLTFYPAWLTVSEGANATFTCSLSNWSEDLMLNWNRLSPSNQTEKQAAFCNGLSQPVQDARFQIIQLPNRHDFHMNILDTRRNDSGIYLCGAISLHPKAKIEESPGAELVVTERILETSTRYPSPSPKPEGRFQGMVIGIMSALVGIPVLLLLAWALAVFCSTSMSEARGAGSKDDTLKEEPSAAPVPSVAYEELDFQGREKTPELPTACVHTEYATIVFTEGLGASAMGRRGSADGLQGPRPPRHEDGHCSWPL
- expression_or_secretion [2]: decreases
